Reference: paper PMC2742357

Tests used:
[1] = biological target: unphosphorylated smooth muscle myosin (chicken (endogenous in gizzard)) (UniProt P10587)
[2] = biological target: unphosphorylated smooth muscle myosin (chicken (endogenous in gizzard)) (UniProt P10587); assay: co-sedimentation
[3] = biological target: unphosphorylated smooth muscle myosin (chicken (endogenous in gizzard)) (UniProt P10587); assay: ELISA
[4] = biological target: phosphorylated smooth muscle myosin (pSMM) (Gallus gallus) (UniProt P10587); conditions: cited from earlier work
[5] = biological target: phosphorylated smooth muscle myosin (chicken (endogenous in gizzard)) (UniProt P10587); assay: co-sedimentation
[6] = biological target: smooth muscle myosin (phosphorylated) (Gallus gallus) (UniProt P10587); conditions: cited from earlier work

Chain of MLCK (P11799 935-1906): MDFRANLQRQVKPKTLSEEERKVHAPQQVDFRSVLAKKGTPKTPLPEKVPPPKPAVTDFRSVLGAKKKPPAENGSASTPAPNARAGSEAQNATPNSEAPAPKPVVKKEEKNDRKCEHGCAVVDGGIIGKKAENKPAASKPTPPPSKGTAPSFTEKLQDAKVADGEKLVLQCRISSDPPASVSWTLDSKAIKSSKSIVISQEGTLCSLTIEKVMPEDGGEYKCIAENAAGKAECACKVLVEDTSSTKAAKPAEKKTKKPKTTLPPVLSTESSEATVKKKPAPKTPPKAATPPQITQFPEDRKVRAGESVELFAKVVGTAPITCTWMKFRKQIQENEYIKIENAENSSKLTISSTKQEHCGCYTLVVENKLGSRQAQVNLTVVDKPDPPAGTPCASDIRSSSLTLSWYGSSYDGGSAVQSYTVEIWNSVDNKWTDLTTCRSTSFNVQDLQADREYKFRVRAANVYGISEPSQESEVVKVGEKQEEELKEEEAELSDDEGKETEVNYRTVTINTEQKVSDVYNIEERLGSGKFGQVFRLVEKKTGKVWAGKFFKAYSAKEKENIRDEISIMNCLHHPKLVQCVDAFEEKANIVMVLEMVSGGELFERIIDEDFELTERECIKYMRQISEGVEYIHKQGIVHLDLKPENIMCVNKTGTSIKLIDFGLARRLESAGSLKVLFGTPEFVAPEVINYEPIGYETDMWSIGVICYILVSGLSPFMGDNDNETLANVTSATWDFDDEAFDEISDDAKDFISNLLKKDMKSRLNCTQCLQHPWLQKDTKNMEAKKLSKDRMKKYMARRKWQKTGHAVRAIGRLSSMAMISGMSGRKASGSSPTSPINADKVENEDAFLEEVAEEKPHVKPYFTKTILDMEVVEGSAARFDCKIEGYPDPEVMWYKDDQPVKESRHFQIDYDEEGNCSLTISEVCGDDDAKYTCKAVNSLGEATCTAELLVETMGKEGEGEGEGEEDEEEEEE

Q: With telokin (natural protein) as the substance, how does the Kd [1] read?
A: The Kd was 5 µM.

Q: And the percent of actin displaced from SMM filaments at 50 uM telokin [2]?
A: The percent of actin displaced from SMM filaments at 50 uM telokin was 5%.

Q: And the percent of actin displaced from the SMM coverslip at 50 uM telokin [3]?
A: Its percent of actin displaced from the SMM coverslip at 50 uM telokin is 9%.

Q: For “smooth muscle myosin light chain kinase (MLCK) (from UniProt P11799)”, which Kd [4] is on record?
A: Its Kd is over 100 µM.

Q: For “smooth muscle myosin light chain kinase (enzyme)”, which Kd of the more weakly bound MLCK pool [2] is on record?
A: The Kd of the more weakly bound MLCK pool was 9.5 µM.

Q: What about the percent of MLCK bound to SMM, spin 2 [2] of the same substance?
A: The percent of MLCK bound to SMM, spin 2 was 75%.

Q: And the Kd of the more weakly bound MLCK pool [5]?
A: Its Kd of the more weakly bound MLCK pool is 23.8 µM.

Q: With MLCK (from UniProt P11799) as the substance, how does the Kd [6] read?
A: The Kd was 770 nM.
